Laboratory results reported in IntAct's records for PubMed 21311754.

Experiments:
apc_human APC [1] = target: apc_human APC (UniProt P25054)
apc_human APC [2] = target: apc_human APC (UniProt P25054); remark: listed apart in the source

Chain of apc_human APC (P25054 whole entry): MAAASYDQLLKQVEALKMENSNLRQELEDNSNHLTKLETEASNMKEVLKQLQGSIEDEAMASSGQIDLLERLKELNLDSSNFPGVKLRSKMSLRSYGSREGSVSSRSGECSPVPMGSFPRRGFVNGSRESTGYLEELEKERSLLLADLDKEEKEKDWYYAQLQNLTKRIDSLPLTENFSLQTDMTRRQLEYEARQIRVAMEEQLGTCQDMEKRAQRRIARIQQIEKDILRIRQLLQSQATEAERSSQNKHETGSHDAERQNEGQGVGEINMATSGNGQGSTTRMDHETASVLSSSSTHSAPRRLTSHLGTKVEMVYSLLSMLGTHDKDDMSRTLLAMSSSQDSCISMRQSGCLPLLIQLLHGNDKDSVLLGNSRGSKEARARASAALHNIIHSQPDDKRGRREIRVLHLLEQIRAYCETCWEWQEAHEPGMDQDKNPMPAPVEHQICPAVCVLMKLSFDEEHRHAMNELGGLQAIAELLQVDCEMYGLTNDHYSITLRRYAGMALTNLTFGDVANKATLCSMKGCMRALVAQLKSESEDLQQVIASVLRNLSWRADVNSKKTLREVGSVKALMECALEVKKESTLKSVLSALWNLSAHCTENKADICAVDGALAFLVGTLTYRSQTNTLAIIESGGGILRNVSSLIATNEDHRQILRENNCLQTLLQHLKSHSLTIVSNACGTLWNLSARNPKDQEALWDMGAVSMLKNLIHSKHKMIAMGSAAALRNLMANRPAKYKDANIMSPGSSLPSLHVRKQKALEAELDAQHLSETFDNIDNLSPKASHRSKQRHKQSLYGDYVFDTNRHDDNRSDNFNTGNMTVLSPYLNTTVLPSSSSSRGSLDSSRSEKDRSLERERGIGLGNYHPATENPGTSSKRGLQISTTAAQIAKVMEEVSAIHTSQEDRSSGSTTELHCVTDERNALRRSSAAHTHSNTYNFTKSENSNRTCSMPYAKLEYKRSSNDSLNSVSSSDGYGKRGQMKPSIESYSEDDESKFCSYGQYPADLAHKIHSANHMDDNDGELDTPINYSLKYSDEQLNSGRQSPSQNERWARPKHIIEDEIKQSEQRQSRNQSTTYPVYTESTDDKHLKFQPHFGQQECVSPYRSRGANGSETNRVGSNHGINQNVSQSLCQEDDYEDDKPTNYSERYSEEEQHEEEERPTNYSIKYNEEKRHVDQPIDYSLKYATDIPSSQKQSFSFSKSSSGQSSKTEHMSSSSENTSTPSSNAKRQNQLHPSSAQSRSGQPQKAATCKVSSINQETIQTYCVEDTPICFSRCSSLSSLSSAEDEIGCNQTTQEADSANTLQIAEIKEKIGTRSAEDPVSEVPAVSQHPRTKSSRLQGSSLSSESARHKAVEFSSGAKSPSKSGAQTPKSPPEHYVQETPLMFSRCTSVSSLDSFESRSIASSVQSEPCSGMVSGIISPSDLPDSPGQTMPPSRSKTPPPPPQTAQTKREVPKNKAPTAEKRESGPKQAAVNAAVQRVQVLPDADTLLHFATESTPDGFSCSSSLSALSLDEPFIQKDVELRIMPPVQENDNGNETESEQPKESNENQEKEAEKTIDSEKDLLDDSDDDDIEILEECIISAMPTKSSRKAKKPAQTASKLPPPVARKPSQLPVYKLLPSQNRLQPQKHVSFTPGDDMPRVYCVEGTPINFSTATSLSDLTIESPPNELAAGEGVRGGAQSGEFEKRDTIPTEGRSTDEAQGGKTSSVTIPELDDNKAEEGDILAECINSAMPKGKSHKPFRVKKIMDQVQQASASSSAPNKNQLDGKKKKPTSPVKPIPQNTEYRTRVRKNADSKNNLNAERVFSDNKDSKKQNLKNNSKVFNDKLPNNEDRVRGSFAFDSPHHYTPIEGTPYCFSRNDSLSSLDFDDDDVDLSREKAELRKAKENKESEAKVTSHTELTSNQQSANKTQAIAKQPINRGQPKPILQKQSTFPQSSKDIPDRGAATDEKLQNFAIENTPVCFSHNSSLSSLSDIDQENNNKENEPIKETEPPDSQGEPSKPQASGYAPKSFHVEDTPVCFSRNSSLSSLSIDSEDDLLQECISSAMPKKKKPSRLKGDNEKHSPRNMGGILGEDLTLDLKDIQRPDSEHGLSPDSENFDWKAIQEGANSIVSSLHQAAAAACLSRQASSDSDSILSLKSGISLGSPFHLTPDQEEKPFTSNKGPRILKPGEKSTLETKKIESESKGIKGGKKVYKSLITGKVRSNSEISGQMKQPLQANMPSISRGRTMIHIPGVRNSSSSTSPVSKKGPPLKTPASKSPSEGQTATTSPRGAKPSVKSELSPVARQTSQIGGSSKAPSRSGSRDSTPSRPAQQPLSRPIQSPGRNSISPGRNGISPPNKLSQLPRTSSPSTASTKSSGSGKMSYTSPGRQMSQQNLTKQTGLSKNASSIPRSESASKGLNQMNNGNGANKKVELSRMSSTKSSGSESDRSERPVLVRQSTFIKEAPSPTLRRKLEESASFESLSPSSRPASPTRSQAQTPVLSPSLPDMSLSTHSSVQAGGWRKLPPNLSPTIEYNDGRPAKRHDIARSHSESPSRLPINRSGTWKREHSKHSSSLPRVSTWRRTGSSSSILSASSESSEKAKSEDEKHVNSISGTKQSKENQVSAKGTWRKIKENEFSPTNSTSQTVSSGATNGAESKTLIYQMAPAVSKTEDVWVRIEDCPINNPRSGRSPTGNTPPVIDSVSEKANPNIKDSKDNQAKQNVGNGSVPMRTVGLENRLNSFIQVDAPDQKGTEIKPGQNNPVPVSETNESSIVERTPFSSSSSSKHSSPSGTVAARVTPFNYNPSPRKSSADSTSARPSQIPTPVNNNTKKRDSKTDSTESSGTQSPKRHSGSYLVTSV
Chain of Cell division control protein 42 homolog (Homo sapiens), P60953 T17N (P60953 whole entry T17N): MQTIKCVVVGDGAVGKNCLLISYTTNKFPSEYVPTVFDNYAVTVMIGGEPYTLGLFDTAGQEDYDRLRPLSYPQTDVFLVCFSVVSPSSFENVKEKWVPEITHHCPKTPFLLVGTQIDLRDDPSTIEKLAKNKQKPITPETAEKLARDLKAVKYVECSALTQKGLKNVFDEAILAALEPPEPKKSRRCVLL

- effect of a mutation on the interaction (apc_human APC [1]): disrupting interaction strength
- effect of a mutation on the interaction (apc_human APC [2]): decreasing interaction strength
Substance: Cell division control protein 42 homolog (Homo sapiens), P60953 T17N
